{"source": "patent US20050048070A1", "about": "(published 2005)", "binders": {"B1": {"name": "human monoclonal IgM antibody COU-1 (antibody, V domains shown)", "VH": "GAEVKKPGASVKVSCKASDYTFSSYYMHWVRQAPGQGLEWMGIINPSGGSTSYAQKFQGRVTMTRDTSTNTVYMELSSLRSEDTAVYYCARDQVVVAATLSNYGMDVWGQGTTVTVSS", "VL": "ELTQSPGTLSLSPGERATLSCRASQSVSSSYLAWYQQKPGQAPRLLIYDASNRATGIPARFSGSGSGTDFTLTISSLEPEDFAVYYCQQGTNWGIAFGQGTRLDIKR", "notes": "Human IgM with kappa light chain, secreted by hybridoma B9165 (ECACC 87040201), purified from culture supernatant; also called HMab COU-1; HuMab COU-1"}}, "key": {"ovalbumin": {"biological_target": "T1, ovalbumin (UniProt P01012 2-386)", "T1 construct": "Irrelevant antigen in the ELISA", "T1 sequence (looked up)": "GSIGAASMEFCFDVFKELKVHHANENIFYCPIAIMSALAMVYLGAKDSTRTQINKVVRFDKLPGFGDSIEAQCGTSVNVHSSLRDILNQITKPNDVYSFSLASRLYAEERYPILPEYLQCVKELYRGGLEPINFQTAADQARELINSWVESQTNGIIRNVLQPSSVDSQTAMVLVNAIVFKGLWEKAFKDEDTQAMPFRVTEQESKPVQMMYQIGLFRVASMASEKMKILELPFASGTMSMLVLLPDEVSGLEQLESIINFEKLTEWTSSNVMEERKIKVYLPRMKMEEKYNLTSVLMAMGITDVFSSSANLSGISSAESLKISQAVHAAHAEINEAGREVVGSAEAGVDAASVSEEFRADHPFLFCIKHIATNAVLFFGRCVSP", "test": "ELISA on coated antigens (data not shown)"}, "bovine serum albumin": {"biological_target": "T2, bovine serum albumin (bovine, UniProt P02769 25-607)", "T2 construct": "Irrelevant antigen in the ELISA; also called BSA", "T2 sequence (P02769 25-607 limits assumed)": "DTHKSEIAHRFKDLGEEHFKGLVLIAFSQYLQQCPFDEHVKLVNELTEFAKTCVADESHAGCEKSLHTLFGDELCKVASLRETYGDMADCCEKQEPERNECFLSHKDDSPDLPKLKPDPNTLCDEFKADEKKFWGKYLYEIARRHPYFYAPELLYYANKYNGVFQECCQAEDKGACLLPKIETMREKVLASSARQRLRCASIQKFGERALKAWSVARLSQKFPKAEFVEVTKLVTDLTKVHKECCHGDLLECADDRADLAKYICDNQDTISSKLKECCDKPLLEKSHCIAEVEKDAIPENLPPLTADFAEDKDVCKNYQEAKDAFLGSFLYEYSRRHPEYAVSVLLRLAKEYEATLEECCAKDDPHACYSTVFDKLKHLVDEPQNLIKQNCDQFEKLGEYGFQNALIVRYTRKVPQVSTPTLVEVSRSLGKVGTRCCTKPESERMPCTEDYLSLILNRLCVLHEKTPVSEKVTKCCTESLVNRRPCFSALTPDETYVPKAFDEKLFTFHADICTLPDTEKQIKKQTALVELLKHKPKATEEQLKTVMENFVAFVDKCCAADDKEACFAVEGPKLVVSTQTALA", "test": "ELISA on coated antigens (data not shown)"}, "[1]": {"biological_target": "T3, K8(1-129)/intact K18 heterotypic complex (human, UniProt P05787 2-130; P05783 2-430)", "T3 construct": "Heterotypic complex of two GST fusion proteins; not shown: glutathione S-transferase (GST) fusion partner, modified pGEX-2T vector", "T3 chain 1": "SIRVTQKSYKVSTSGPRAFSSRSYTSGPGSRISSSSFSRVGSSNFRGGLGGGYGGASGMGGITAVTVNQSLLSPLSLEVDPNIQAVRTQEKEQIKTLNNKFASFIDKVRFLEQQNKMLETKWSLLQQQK", "T3 chain 2": "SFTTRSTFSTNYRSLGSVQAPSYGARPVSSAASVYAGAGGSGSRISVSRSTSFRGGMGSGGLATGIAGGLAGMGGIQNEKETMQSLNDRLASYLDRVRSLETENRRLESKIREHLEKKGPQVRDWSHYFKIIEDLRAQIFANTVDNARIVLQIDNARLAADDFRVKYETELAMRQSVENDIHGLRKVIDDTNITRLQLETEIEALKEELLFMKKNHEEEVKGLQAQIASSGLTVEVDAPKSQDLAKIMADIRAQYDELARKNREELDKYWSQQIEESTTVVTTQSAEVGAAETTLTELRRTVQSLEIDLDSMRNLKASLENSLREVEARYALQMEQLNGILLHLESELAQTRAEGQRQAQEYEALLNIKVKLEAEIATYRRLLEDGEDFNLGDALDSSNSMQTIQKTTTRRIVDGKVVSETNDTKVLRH", "test": "ELISA: complex coated at 5 µg/ml, COU-1 in serial dilutions, AP-labeled anti-human kappa antibody"}, "[2]": {"biological_target": "T4, K8(1-85)/K18(1-72) heterotypic complex (human, UniProt P05787 2-86; P05783 2-73)", "T4 construct": "Heterotypic complex of two GST fusion proteins; not shown: glutathione S-transferase (GST) fusion partner, modified pGEX-2T vector", "T4 chain 1": "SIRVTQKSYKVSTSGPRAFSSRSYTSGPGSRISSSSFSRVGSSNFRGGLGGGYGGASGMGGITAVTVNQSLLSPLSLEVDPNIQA", "T4 chain 2": "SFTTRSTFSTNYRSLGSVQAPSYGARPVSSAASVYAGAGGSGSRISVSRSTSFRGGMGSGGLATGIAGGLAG", "test": "heterotypic association Western blot"}, "[3]": {"biological_target": "T5, K8(1-233)/K18(1-72) heterotypic complex (human, UniProt P05787 2-234; P05783 2-73)", "T5 construct": "Heterotypic complex of two GST fusion proteins; not shown: glutathione S-transferase (GST) fusion partner, modified pGEX-2T vector", "T5 sequence 1": "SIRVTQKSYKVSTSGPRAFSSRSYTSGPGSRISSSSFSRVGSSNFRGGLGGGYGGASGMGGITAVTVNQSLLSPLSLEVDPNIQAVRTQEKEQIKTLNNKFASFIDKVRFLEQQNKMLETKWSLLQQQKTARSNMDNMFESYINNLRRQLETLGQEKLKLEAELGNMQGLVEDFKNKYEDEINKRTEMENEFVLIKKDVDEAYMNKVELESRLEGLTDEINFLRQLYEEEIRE", "T5 sequence 2": "T4 chain 2", "test": "heterotypic association assay: blotted K18 proteins incubated with purified K8(1-233), then stained with COU-1"}, "[4]": {"biological_target": "T6, K8(1-85)/K18(1-213) heterotypic complex (human, UniProt P05787 2-86; P05783 2-214)", "T6 construct": "Heterotypic complex of two GST fusion proteins; not shown: glutathione S-transferase (GST) fusion partner, modified pGEX-2T vector", "T6 chain 1": "T4 chain 1", "T6 chain 2": "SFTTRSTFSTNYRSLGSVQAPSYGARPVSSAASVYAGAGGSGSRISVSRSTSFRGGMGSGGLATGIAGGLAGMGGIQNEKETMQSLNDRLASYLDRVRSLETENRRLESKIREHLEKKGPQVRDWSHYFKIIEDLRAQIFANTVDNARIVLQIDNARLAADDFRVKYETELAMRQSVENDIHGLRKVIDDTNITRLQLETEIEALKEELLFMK", "test": "heterotypic association assay: blotted K8 proteins incubated with purified K18(1-213), then stained with COU-1"}, "[5]": {"biological_target": "T7, intact K18, native (band 3 of cytokeratin purified from colon cancer tissue; K18 in fixed cancer cells) (human, UniProt P05783 2-430, acetylated serine at its N-terminus)", "T7 construct": "Natural protein, no tag; also called normal K18; cytokeratin 18", "T7 sequence": "T3 chain 2", "test": "strips of a PVDF blot of SDS-PAGE-separated cytokeratin purified from colon cancer tissue"}, "[6]": {"biological_target": "T8, intact K8, native (band 1 of cytokeratin purified from colon cancer tissue; K8 in fixed cancer cells) (human, UniProt P05787 2-483, N-terminally blocked)", "T8 construct": "Natural protein, no tag; also called normal K8; cytokeratin 8", "T8 chain": "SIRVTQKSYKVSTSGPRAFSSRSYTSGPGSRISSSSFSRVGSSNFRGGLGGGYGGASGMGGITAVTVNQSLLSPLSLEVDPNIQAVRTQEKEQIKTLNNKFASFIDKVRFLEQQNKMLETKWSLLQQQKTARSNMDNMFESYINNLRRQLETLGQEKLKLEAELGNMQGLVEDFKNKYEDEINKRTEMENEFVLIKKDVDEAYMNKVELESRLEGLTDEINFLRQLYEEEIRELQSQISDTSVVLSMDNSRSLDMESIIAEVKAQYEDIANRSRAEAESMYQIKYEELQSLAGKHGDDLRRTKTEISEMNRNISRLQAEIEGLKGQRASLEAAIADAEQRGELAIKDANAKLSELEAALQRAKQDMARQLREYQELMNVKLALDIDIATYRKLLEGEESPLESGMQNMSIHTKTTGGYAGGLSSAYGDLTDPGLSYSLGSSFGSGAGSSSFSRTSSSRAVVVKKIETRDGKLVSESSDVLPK", "test": "strips of a PVDF blot of SDS-PAGE-separated cytokeratin purified from colon cancer tissue"}}}
{"binder": "B1", "values": [{"measurement": "binding result", "setting": "ovalbumin", "result": "no binding"}, {"measurement": "binding result", "setting": "bovine serum albumin", "result": "no binding"}, {"measurement": "EC50 (read off the curve)", "setting": "[1]", "result": "~0.6", "unit": "µg/mL"}, {"measurement": "binding result", "setting": "[2]", "result": "no binding (tested: COU-1 5 µg/ml)"}, {"measurement": "binding result", "setting": "[3]", "result": "no binding (tested: 5 µg/ml COU-1 (P-0285))"}, {"measurement": "binding result", "setting": "[4]", "result": "no binding (tested: 5 µg/ml COU-1 (P-0285))"}, {"measurement": "binding result", "setting": "[5]", "result": "no binding (tested: 5 µg/ml COU-1 (P-0279))"}, {"measurement": "binding result", "setting": "[6]", "result": "no binding (tested: 5 µg/ml COU-1 (P-0279))"}]}
